Test results taken from article PMC12615776, “Conformational alteration of DOCK5•ELMO1 signalosome on lipid membrane” (Communications Biology, 2025).

Target: T1, human ELMO1, full length (residues 1–727), tag cleaved (human, UniProt Q92556 1-727)
T1 construct: human ELMO1, full length, residues 1–727; Purified as a complex with DOCK5; also called engulfment and cell motility 1; source: FreeStyle 293-F cells, co-expressed with DOCK5, purified (Streptavidin Sepharose, TEV cleavage, SEC Superose 6); not shown: FLAG, N-terminal, cleaved
T1 sequence (Q92556 whole entry, the tested form may be a part): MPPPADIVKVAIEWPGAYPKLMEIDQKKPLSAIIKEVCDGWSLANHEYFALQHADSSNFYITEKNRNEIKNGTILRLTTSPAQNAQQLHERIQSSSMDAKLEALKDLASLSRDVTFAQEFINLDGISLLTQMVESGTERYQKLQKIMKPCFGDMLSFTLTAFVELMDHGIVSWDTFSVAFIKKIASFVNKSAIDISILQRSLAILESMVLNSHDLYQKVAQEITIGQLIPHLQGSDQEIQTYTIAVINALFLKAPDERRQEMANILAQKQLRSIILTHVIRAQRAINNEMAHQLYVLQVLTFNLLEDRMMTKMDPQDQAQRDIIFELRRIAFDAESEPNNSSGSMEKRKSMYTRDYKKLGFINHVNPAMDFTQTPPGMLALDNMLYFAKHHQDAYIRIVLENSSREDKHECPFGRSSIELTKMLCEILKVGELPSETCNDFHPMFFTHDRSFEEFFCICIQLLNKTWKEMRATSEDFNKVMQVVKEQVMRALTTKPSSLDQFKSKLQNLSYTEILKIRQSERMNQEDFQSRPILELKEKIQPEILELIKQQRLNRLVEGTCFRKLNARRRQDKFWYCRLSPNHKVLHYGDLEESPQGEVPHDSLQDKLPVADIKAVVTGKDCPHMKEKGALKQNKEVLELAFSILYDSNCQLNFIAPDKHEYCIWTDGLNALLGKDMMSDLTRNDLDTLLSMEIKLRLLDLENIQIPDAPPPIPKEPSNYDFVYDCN
Assay: cryo-EM structure; purified DOCK5•ELMO1 complex mixed with a two-fold molar excess of Rac1^G15A-His10 and RhoG^Q61L-His10, pre-incubated on ice at least 1 h in 20 mM HEPES-NaOH pH 7.0, 150 mM NaCl, 1 mM MgCl2 (final 0.4 μM); bound to a lipid monolayer-coated grid [67PC/21PA/6PIP3/6DOGS-NTA Ni (mol%)]; single-particle analysis, C2, 6.98 Å (local 7.52 Å)
Settings: both partners purified

binding result: binds
B1: human RhoG (residues 1–191, Q61L mutant), C-terminal His10 (natural protein)
chain: not shown
notes: human RhoG, residues 1–191, Q61L; 10 μM GTP and 1 mM MgCl2 were added during purification to obtain the active form; Anchored to the lipid monolayer through His10 and DOGS-NTA(Ni); also called RhoG^Q61L; constitutively active mutant of RhoG; source: E. coli cell-free protein synthesis, purified (HisTrap, TEV cleavage, second HisTrap, SEC Superdex 75); not shown: N11 (modified natural …)
